Test results: a protein production outcome set (Wang et al. 2014)

Test: label from the status in PepcDB records

Sequence | protein production
MTNMFSLLYPLISIVIGVVPLFIFKRNAYLLGIAAASYFTAIILKEIIQLSFRSFFITPTLPTYLSYGILTAIFEPGFAYLYLVLTKAKVNGQLGLSYGSYLAFYENAIFLGLLSLPNYLLLSVQFSVLSLALYGLERISSFILHLFWGFSSALSASKKNIKYLSVSMPYGMVDSVAAYYQLSHNISLVSTEIISLVVSISCLPIIVLWYKMDKRNQRLD | failed
MLIALLLISYQLIKHGYRAADIKNLYTILEGEELRRQKDLSAKLRWGIVDEILWTIIVANGAILFTAHYVLIGLKILDLIAIFVVMLSGVMLYAPLAFLFLYPVVRAFEKNFPPSNPQFLLSHGLICTVSSLIVYEKLEQLWWDPLLVGFFWIAAGFVSFFTNRRFEVLVFLLLIAPLALLSVKCPGAILPILLAKSECSLRIQATFLVKLAVLIFASLAAVALVLQVFGYKSLRELSEKRKAAIKQGKYNPLRDPIIWIAWIMLTSLGLLIASFMERGEISPNML | failed
MIIERLVGNLRDLNPLDFSVDHVDLEWFETRKKIARFKTRQGKDIAIRLKDAPKLGLSQGDILFKEEKEIIAVNILDSEVIHIQAKSVAEVAKICYEIGNRHAALYYGESQFEFKTPFEKPTLALLEKLGVQNRVLSSKLDSKERLTVSMPHSEPNFKVSLASDFKVVVK | not failed
MSLVGKTLSGRYRVVRPLARGALARVYLAFDPFGTPYALKLFPPKARPRRDRELWVGRRLAHPNLNPVLEALDLEEGPALLLAYAPGEELGRWMGKSPAFSQAMRVFHQLLLALAHMHEKGLVHRDVKPENILVNAGEARLLDFDLSGPAQERFQKPLLLGTPAYLAPELLRGLPSGPEADVYAAGIILYWMLTGEHPFADPSGRVSLDPDRGPHPPVAGLGEEAALYLERLLAPDPKARFPTAQEALKAFPF | failed
ENIKTILLTVLVVISLVFTWGIWTFQPNFSEGSSSTESTVRVKHKIEKTTQKLSETVRPRDMFIHDDGAHYKVDDNALYEEIWSDLPHWDVKGIKDISDQYDKAGFKSWFYGIGGSEAKLDLQFSDTIPIDIFQTLFKWSNQSFEYSSFDHILIPFNETKANKKIYLVSYSKQLILEVTVESANYRNIMNDLKNRQSNMPAFSLFSIGSKKEFLLPNKPLTMDKKEFVTESIKTNTFKQALFSDPSIVREDSNYNNRNVLTDGISRLDVNLSQRQVQFQQRNLVQSTSYQTGELIKKSQKYLEDTGSWTDHYQFFNINDSQQLSFYIFMDQIPVINSTAKPFGATSAITVQWANDDILSYKRPNYSLGTNPIKTSETELMGGSEVKMLLSKQTAYDTDKIDQIFLAYQLVSTSTNDDPLVELEPVWAMKVNGKIVPITKDLLRKEGANSGVE | failed
SLLRFSAVSRHHRGASIDPMTFSEATTPDALTPDAHTPRLLTCDVLYTGMGGAQSPGGVVVVGETVAAAGHPDELRRQYPHAAEERAGAVIAPPPVNAHTHLDMSAYEFQALPYFQWIPEVVIRGRHLRGVAAAQAGADTLTRLGAGGVGDIVWAPEVMDALLAREDLSGTLYFEVLNPFPDKADEVFAAARTHLERWRRLERPGLRLGLSPHTPFTVSHRLMRLLSDYAAGEGLPLQIHVAEHPTELEMFRTGGGPLWDNRMPALYPHTLAEVIGREPGPDLTPVRYLDELGVLAARPTLVHMVNVTPDDIARVARAGCAVVTCPRSNHHLECGTFDWPAFAAAGVEVALGTDSVASGETLNVREEVTFARQLYPGLDPRVLVRAAVKGGQRVVGGRTPFLRRGETWQEGFRWELSRDL | not failed
MKTMNYSLIRILFALVIGLVLVLWPNTAASYIVITIGVAFLIPGVISLFSFFGRKRSEHEPAPRFPIEGIGSLLFGLWLIVMPEFFADVLMFLLGFILIMGGVQQIASLSMARRWTPVPGIFYLVPSLILIAGVIALFNPTGVRNTAFIIIGISSLVYSLSELINWFKFARRRPKTPVTPHDEDIEDAKIIE | failed
MARIKLDFPDTAFTFETRLPVRITDINGANHLGNDALISMLSEARAQFLVEHGIEEAGHDGVGIIVTDLATMYQGESFYPDMLRFEVGLMDFNKYGGDFVFRVTKADSGQPVALAKYGFVFFNYQSREVTPMPESFRARFA | failed
MKICAVVVTYNRKDLLVECLEALRRQTGPLDAIYIIDNASTDGTPHLLMEGGYIDDPDGSVKNLPDHHGRSLKIVYVRLNENTGGAGGFYKGVRRAFHDEYDWIWLMDDDVEPEEYTLEKLLKASERIPEDVSAVAPVRFFQGSLFISETKTFNFRNPLKHFTYDFITDDDLKEEYFKISAISFEGLLIKREAIERIGFPDKSLFIIADDTDYAIRLRDYGPIYMVSGARLIKKVAAEPDFNWKGFYHLRNVIYLDRKYGENILVRYLRPLRTLIIVTYQCLKYKPSGFKYLLKAFWEGYTLKRGKTVKPGEFLEHHHHHH | not failed
MLTQGNFDVLPVGDGAKRAQTVQPTVKLRIETIGVPRISDENGRNLTPVGSRNRVIPVILALSPRMTVGRRWLEALLWSDRGPDQASGSLRQALSSIRRQLGDARDILCANRTDIWMTSKDVTIDLLDDQQGVLQRLRAGRDFLEGIDILSEGFEDWLRQERASLLQMAEVELPARALPARLHATEAERPLSWTQEPPRFFLDQDLGLESDKLERFLTDAISTQLTQTVKSHFRADVRALDGTLTPVIVTPGARFAIRVTRINKAFAVLARMTEEPAGRLFWSRQLFIDSRETESMMDTAAALATEASEAMGARSFVASPAQQANVLAAEALADVFSFDPDRLRKAIRTLGRANDIDPHAPRPALKALALAFLALETRNTDRDHLIGEVTDLIRQSRALDSRNALALSFLADVQDLVFEDPQTALSYAKSALRSNPGIGYAYASLGALELRRGAAEAALIAASRAQRQLANSSLEVFSLMRLCVANLTAKDFDAAEQAAQRAAELAPTSQPPLRHLYALRLRRKDYAAARQTLRALRRLDPLFSMQYLRENPEFPAATIRTMQLHKLMDVELG | failed
MANETPKRRILVIRIDFLGDMLCTTAFLGALKRRWPDAELHVVANRYNASALDGNPDVHAVHTYVYSRQCERNDRPGRMRAFFDRLRLVRRLRRLRFDLVVVPNGGMHRSSIQLARQLGVKDCRWHDADSEFDDRKPEHVASRPMCHEALSGFRLVPELGRNDLDGLALSVHPDRALLDTWYRLLGARAKPRVGLFVSNKATERRWPADRWCDLGRRLAPFADVIVFRDPAVSAGAGADGDAWRDVNARHVAPSSVAELVAAASLLDAIVSADSAPVHLASALGVPVAALFEDRPEKYRRWHPLGVPHMILRAGATVDAIGVDAVERAVLHLLEKAGQADDATGGALPLPDVTLVVPAVGAIVS | failed
MKLAKLIPKRFFIRSKDRSTVSKSPTAFSFGSASSSSGQDCKNSGGDGGGGSVTPTSILPEVPSPYSYVEILQAFKLIDRDNDGAVSRHDLESLLSRLGPDPLTEEEINVMLKEVDCDGDGTIRLEELASRVVSLDPARDSTELKETFEFFDADRDGLISADELLRVFSTIGDERCTLDDCKRMIADVDEDGDGFVCFTEFSRMMDLQR | failed
MLKNLRIRKFEPEEEYVYFTYSIKNDKREKSKELIREYTTLLQKAIDYLWNLTKIQVRKKNGNYKITLPKKREVYKPLREELEKINHLASHYVDKAINDAFSILKSWRKRAIKGRASIEKPRVKKAYVRIKTTLRKVVGESVRITVRPHEYITFSWSKSWFSRRVRELELGEPIIKEEKVYLPFRYKLPWATPVDFLAIDSNLYTLDAYDGEKFVTISLKQLYSLKYSMEVKRAKVQSFASKHTKRGRELMRKYSHRERNRVLDFVHKFVNTLLDLYPMTFFAVEKLNKESMFKDANDSLSRKISRTVWGSIHRVLKYKAPLYGSFVKEVNPRFTSRSCPRCGFVSRKVGKTFECERCGFKLDRQLNASLNIYLKMCGFPHIREIARVWVGVIPLMGRRGMNGFPRDFGEAQGLRIDIEYHEIPLEHHHHHH | not failed
MIDELRALAVFAKTTETGSFRAAARALGLAPSVVSHHVSQLESRLGVALLYRSTRRLSLTPDGQALYGHAQAMLQAAETGLNELAGRAAEPAGTLRLSLPAFFARGPLTTSLAAFSRCHPKVELELDYSDEKRDLIRDGIDLAIRIGELQDSALKSRRLFDMPRLLVAAPSLLDARGEPASPAELADWPWLGIRMRAKRKTLIDAAGRRHDFAIQPRITANSVDAACQLAIAGCGLATPPAFLVENELAAGQLRVVLPDCQVEALGVYAVWPANAARESLTLRLVRFLAELPPHQ | failed
HGEQSYSIGILTDITMTKMYEVLQYKVLEALILERPLDEVMTMLCHEVERIAPEVTASILQSIGQNHLSHLAGPSLPPAYTAVISSVPISPIAGSCGTAAFRKEAVEVQDIATDPLWDNYRHLILPHGLLACWSTPIISSQGQLLGTFAFYYRQIRSPSDFHRQLVKLIANLCSLAMERELSRKQIQHLAFYDS | failed
MPDACFSDGDPIVLVVLGYVVVVVAVLGGYALTGGHMGALYQPAELIIIGGAAVGAFISSNSGKAIKATMKAMPSLLKGSKYKKELYLDVMALLYVLLSKARREGILFLEKEIADPASSSVFSQYPRILADAKMMEFLTDYLRMMVNGNMNAFEIEALMDHEIETVRHEAEIPAHALSRVGDGLPAFGIVAAVMGVVHALASADLPPAELGALIANAMVGTFLGILLAYGFVSPLASRVEHQVSESIKMYECIKVTLLASLNGYAPLVAVEFGRKVLYSTVRPSFLELDDHVREVKSLT | failed
MKIFIVGSTGRVGKSLLKSLSTTDYQIYAGARKVEQVPQYNNVKAVHFDVDWTPEEMAKQLHGIDAIINVSGSGGKSLLKVDLYGAVKLMQAAEKAEVKRFILLSTIFSLQPEKWIGAGFDALKDYYIAKHFADLYLTKETNLDYTIIQPGALTEEEATGLIDINDEVSASNTIGDVADTIKELVMTDHSIGKVISMHNGKTAIKEALESLLEHHHHHH | not failed
MGTYVEPSKLSYGEYLESWFNTKRHSVGIQTAKVLKGYLNSRIIPSLGNIKLAKLTSLHMQNYVNSLRDEGLKRGTIEKIIKVIRNSLEHAIDLELITKNVAAKTKLPKADKEELEHHHHHH | failed
MSLPQSKVLTSFGTANRTPRAAETHPLTWRLRDDGQPVWLEEYQTKQGYDAVRKALGQMSPDEIVSTVKDAGLKGRGGAGFPTGVKWGLMPKDESMNIRYLLCNADEMEPNTWKDRLLMEQLPHLLIEGMIISAKALKAYRGYIFLRGEYVDAAINLRRAVEEAKAAGLLGKNILGSGFDFELFVHTGAGRYICGEETALINSLEGRRANPRAKPPFPAVSGVWGKPTCVNNVETLCNVPAIIGNGVAWYHTLALPGSEDHGTKLMGFSGKVNNPGVWELPFGITARELFEGYAGGMRSGYRLKAWQPGGAGTGFLLPEHLDAQMYTAGIGKVGTRMGTGLAMAVDDSISMVSLLRNMEEFFARESCGWCTPCRDGLPWSVKLLRSLERGEGQEGDLATLEQLCNFLGPGKTFCAHAPGAVEPLASAIKYFRSEFEAGIKGSGDNRKSIKGIQPNLLGERWLEHHHHHH | not failed
RPAVFPRMGVLPARVALLGQGQHWGVDFCLNVFRANFAEDREIQSEDVVRDLLRAQDLDADALIAQARQESTKEALRKQVDRARALGIFGAPTFMVDGEMFWGNDRLEDALA | failed
MDEYEDSQSPAPSYQYPKETLRKRQNSVQNSGGSVSSRFSRKSFKLDYRLEEDVTKSKKGKDGRFVNPWPTWKNISIPNVLRWLIMEKNHSGVPGSKEELDKELPVLKPYFVSDPEDAGVREAGLRVTWLGHATLMVEMDELIFLTDPMFSSRASPSQYMGPKRFRRPPCTISELPTIDAVLISHNHYDHLDYGSVLALNERFGSELRWFVPLGLLDWMQKCGCENVIELDWWEENCVPGHDKVTFVFTPSQHWCKRTLLDDNKVLWGSWSVLGPWSRFFFAGDTGYCPAFEEIGKRFGPFDLAAIPIGAYEPRWFMKYQHADPEDAVRIHIDLQTKRSVAIHWGTFALANEHYLEPPVKLNEALERYGLSCEDFFILKHGESRYLNTDDRAFEET | failed
EEWLDILGNGLLRKKTLVPGPPGSSRPVKGQVVTVHLQTSLENGTRVQEEPELVFTLGDCDVIQALDLSVPLMDVGETAMVTADSKYCYGPQGSRSPYIPPHAALCLEVTLKTAVDRPDLEM | not failed
